Results taken from patent US9205136B2, “Human aminoacyl-tRNA synthetase polypeptides useful for the regulation of angiogenesis” (THE SCRIPPS RESEARCH INSTITUTE, priority 2000, dated 2015).

How the values were obtained:
PMNs [1] = conditions: Kao et al., 1994; cited from earlier work
MPs [2] = conditions: Kao et al., 1994; cited from earlier work
MPs [3] = assay: MP TNFα production (ELISA of culture supernatant); format: cell-based, human; conditions: 1 nM sample protein, 14 hours
Protocol: (§1) Cells for the various cytokine assays described were prepared from acid citrate dextrose-treated blood of normal healthy volunteers. Human PMNs were isolated from the blood by centrifugation (700×g) over Histopaque 1077 and 1119 (Sigma). […] This procedure was repeated twice. Human MPs were isolated by centrifugation on Histopaque 1077 (Sigma). The mononuclear fraction was obtained, washed twice in Hanks' balanced salt solution, resuspended in RPMI-1640 medium (Sigma) containing 10% heat-inactivated fetal bovine serum (Sigma), plated in tissue culture flasks, and incubated in a 6% CO2 incubator at 37° C. for 1-2 hours (Kumagai et al., 1979, J. Immunol. Methods 29:17-25). Nonadherent cells were removed by washing the flasks three times with Hanks' balanced salt solution, and adherent cells were harvested by incubation with calcium-magnesium free phosphate-buffered saline containing 2 mM EDTA for 15 minutes at 4° C., followed by extensive washing.
MP TNFα production was examined following incubation of 10^5 MPs with 1 nM of sample protein for 14 hours. Aliquots of the culture supernatant were then assayed for TNFα production using a TNFα enzyme-linked immunosorbent assay kit (Sigma). Each determination shown in FIG. 2 represents the mean of four measurements from at least three independent experiments.

PMNs [4] = assay: 125I-human mini TyrRS binding and competition assay on PMNs; conditions: 10 nM 125I-mini TyrRS, 200-fold molar excess of unlabeled ligand, on ice 2 hours
In short: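 Human PMNs (2×10^6) in RPMI-1640 with 20 mM Hepes pH 7.4 and 10 mg/ml BSA were incubated with radioiodinated mini TyrRS. Bound and free label were separated by centrifugation through a 10% sucrose/PBS cushion, and cell-associated radioactivity was counted by scintillation.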

MPs [5] = assay: MP chemotaxis assay (ChemoTX microchemotaxis chamber); format: cell-based, human; conditions: sample proteins 1 nM, 3 hours
Protocol: as §1
MP chemotaxis assays were performed in a ChemoTX microchemotaxis chamber (Neuro Probe, Gaithersburg, Md.) containing polycarbonate filters (5 μm pores) with polyvinylpyrrolidone (PVP). MPs were suspended in RPMI-1640 medium containing 1% heat-inactivated fetal bovine serum, and 10^4 cells were added to the upper chamber. Sample proteins (1 nM) were added to the lower compartment of chemotaxis chambers, and the chambers were incubated for 3 hours. After incubation, nonmigrating cells were removed, membranes were fixed in methanol, and migrating cells were visualized with the HEMACOLOR™ stain set (EM Diagnostic Systems, Gibbstown, N.J.). Migrating cells were counted in high-power fields (HPFs). Each determination shown in FIG. 2 represents the average of nine HPF measurements.

MPs [6] = assay: MP tissue factor production (Factor VIIa-dependent Factor Xa formation); format: cell-based, human; conditions: 1 nM sample protein, 4 hours
Protocol: as §1
MP tissue factor production was examined following incubation of 10^4 MPs with 1 nM of sample protein for 4 hours. Tissue factor activity was then inferred from measurements of Factor VIIa-dependent Factor Xa formation (Wolfson et al., 1990 J. Chromatogr., 503:277-81). Each determination shown in FIG. 2 represents the mean of four measurements from at least three independent experiments.

PMNs [7] = assay: PMN release of myeloperoxidase; format: cell-based, human; conditions: 1 nM sample protein, 60 minutes
Protocol: as §1
PMN release of myeloperoxidase was examined following incubation of 3×10^6 PMNs per mL with 1 nM of sample protein for 60 minutes. The generation of peroxidase was then measured by the reduction of 3,3′,5,5′-tetramethylbenzidine (Barker et al., 1982, FEBS Lett. 150:419-23). Peroxidase activity is shown in FIG. 3 as the percent of total peroxidase activity where 100% peroxidase activity is defined as the activity observed for 3×10^6 PMNs following exposure to 10 μM phorbol ester for 60 minutes. Each determination shown in FIG. 3 represents the mean of four measurements from at least three independent experiments.

PMNs [8] = assay: PMN chemotaxis assay (ChemoTX microchemotaxis chamber); format: cell-based, human; conditions: sample proteins 1 nM, 45 min
In short: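 Human PMNs were isolated from healthy-donor blood over Histopaque 1077/1119. 10^4 cells were placed in the upper compartment of a ChemoTX microchemotaxis chamber, with sample protein at 1 nM in the lower compartment. After 45 min, migrated cells were counted as the mean of nine HPFs.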

[9] = test system: human umbilical vein endothelial cells (HUVECs); assay: HUVEC migration assay (modified Boyden chamber); format: cell-based; conditions: 50 nM TyrRS molecule or 0.5 nM VEGF165, 6 hours
Protocol: In contrast, α-chemokines lacking the ELR motif act as angiostatic factors (id.). In order to evaluate the angiogenic activity of TyrRS, which contains the ELR motif, human full-length TyrRS and human mini TyrRS were first examined for their ability to induce endothelial cell migration. Such angiogenic assays were performed using human umbilical vein endothelial cells (HUVECs) (Clonetics, Walkersville, Md.). Cells were maintained in EGM-2® BULLETKIT® medium (Clonetics) in an atmosphere of 6% CO2 at 37° C. according to the supplier's instructions.
Cell migration assays were performed using the modified Boyden chamber (6.5 mm Transwells) with polycarbonate membranes (8.0 μm pore size) (Costar Corp., Cambridge, Mass.) (Masood et al., 1999, Blood 93:1038-44). Wells were coated overnight with 25 μg/mL human fibronectin (Biosource International, Camarillo, Calif.) in PBS and then allowed to air-dry. HUVECs were suspended in Dulbecco's modified Eagle's medium (DMEM) (Gibco-BRL, Gaithersburg, Md.) containing 0.1% BSA (Sigma) and 2×10^5 cells per well were added to the upper chamber. The chemotactic stimulus (50 nM of a given TyrRS molecule or 0.5 nM of human vascular endothelial growth factor-165 (VEGF165) (Biosource International, Camarillo, Calif.)) was placed in the lower chamber, and the cells were allowed to migrate for 6 hours at 37° C. in a 6% CO2 incubator. After incubation, non-migrant cells were removed from the upper face of the Transwell membrane with a cotton swab and migrant cells, those attached to the lower face, were fixed in methanol and visualized with the HEMACOLOR® stain set (EM Diagnostic Systems, Gibbstown, N.J.). Migrating cells were counted in high-power fields (HPFs). HUVECs were suspended in media with the inhibitor for 30 minutes before placement in the chamber. Each determination shown in FIG. 16 represents the average of nine HPF measurements.

[10] = test system: chick chorioallantoic membrane (CAM); assay: In vivo angiogenesis assay in chick chorioallantoic membrane (CAM); conditions: 250 ng TyrRS molecule or 25 ng VEGF165 on filter disk, 72 hours
Protocol: In vivo angiogenesis assays were conducted in chick chorioallantoic membrane (CAM) (Nicolaou et al., 1998, Bioorg. Med. Chem. 6:1185-208). Ten-day-old chick embryos were purchased from Mcintyre Poultry (Lakeside, Calif.) and were incubated at 37° C. and 70% humidity. A small hole was made with a small crafts drill (Dremel, Emerson Electric, Racine, Wis.) directly over the air sac at the end of the egg. The embryos were candled to determine a location to drill a second hole directly over embryonic blood vessels. […] A window was cut in the eggshell over the dropped CAM, exposing the CAM to direct access for experimental manipulation. Cortisone acetate-treated 5 mm filter disks were soaked with a particular protein sample (25 ng of VEGF165 or 250 ng of a given TyrRS molecule) and the filter disks added directly to the CAMs, which were relatively devoid of preexisting blood vessels. The windows were sealed with sterile tape and incubated at 37° C. […] After 72 hours, the CAM tissue associated with the filter disk was harvested and quantified using a stereomicroscope. Angiogenesis was assessed as the number of visible blood vessel branch points within the defined area of the filter disks. Each determination shown in FIG. 17 represents the mean from 5-8 embryos.

Molecule | PMN migration induced by synthetic peptide (literature) (PMNs [1]) | MP migration induced by synthetic peptide (literature) (MPs [2]) | MP TNFα production (MPs [3]) | inhibition of 125I-mini TyrRS binding to PMNs by unlabeled ligand (PMNs [4]) | MP chemotaxis (MP migration) (MPs [5]) | MP tissue factor production (MPs [6]) | PMN release of myeloperoxidase (PMNs [7]) | PMN chemotaxis (PMN migration) (PMNs [8]) | HUVEC chemotaxis [9] | in vivo angiogenesis in chick CAM (blood vessel branch points) [10]
R-I-G-R-I-I-T (RIGRIIT; listed as Homo sapiens) [synthetic peptide of seven residues near the amino-terminus of human mature EMAP II, Cys replaced by Arg] | can induce PMN or MP migration | can induce PMN or MP migration | – | – | – | – | – | – | – | –
full-length TyrRS: recombinant human tyrosyl-tRNA synthetase, 528 amino acid residues, C-terminal His6 tag (protein, C-terminal His6 tag; Human full-length TyrRS in pET20B, recombinant human tyrosyl-tRNA synthetase, 528 amino acid residues, C-terminal His6 tag) MGDAPSPEEKLHLITRNLQEVLGEEKLKEILKERELKIYWGTATTGKPHVAYFVPMSKIADFLKAGCEVTILFADLHAYLDNMKAPWELLELRVSYYENVIKAMLESIGVPLEKLKFIKGTDYQLSKEYTLDVYRLSSVVTQHDSKKAGAEVVKQVEHPLLSGLLYPGLQALDEEYLKVDAQFGGIDQRKIFTFAEKYLPALGYSKRVHLMNPMVPGLTGSKMSSSEEESKIDLLDRKEDVKKKLKKAFCEPGNVENNGVLSFIKHVLFPLKSEFVILRDEKWGGNKTYTAYVDLEKDFAAEVVHPGDLKNSVEVALNKLLDPIREKFNTPALKKLASAAYPDPSKQKPMAKGPAKNSEPEEVIPSRLDIRVGKIITVEKHPDADSLYVEKIDVGEAEPRTVVSGLVQFVPKEELQDRLVVVLCNLKPQKMRGVESQGMLLCASIEGINRQVEPLDPPAGSAPGEHVFVKGYEKGQPDEELKPKKKVFEKLQADFKISEECIAQWKQTNFMTKLGSISCKSLKGGNISLEHHHHHH | – | – | none of the properties observed for the carboxyl-terminal domain | did not inhibit the binding | no chemotaxis was observed | none of the properties observed for the carboxyl-terminal domain | none of the properties observed for the carboxyl-terminal domain | none of the properties observed for the carboxyl-terminal domain | no chemotaxis was observed | –
mini TyrRS mutant: mini TyrRS in which the ELR motif was mutated to ELQ (Glu-Leu-Gln) (protein, His6 tag; Human mini TyrRS mutant in pET20B) MGDAPSPEEKLHLITRNLQEVLGEEKLKEILKERELKIYWGTATTGKPHVAYFVPMSKIADFLKAGCEVTILFADLHAYLDNMKAPWELLELQVSYYENVIKAMLESIGVPLEKLKFIKGTDYQLSKEYTLDVYRLSSVVTQHDSKKAGAEVVKQVEHPLLSGLLYPGLQALDEEYLKVDAQFGGIDQRKIFTFAEKYLPALGYSKRVHLMNPMVPGLTGSKMSSSEEESKIDLLDRKEDVKKKLKKAFCEPGNVENNGVLSFIKHVLFPLKSEFVILRDEKWGGNKTYTAYVDLEKDFAAEVVHPGDLKNSVEVALNKLLDPIREKFNTPALKKLASAAYPDPSKQKPMAKGPAKNSEPEEVILEHHHHHH | – | – | – | did not inhibit the binding | – | – | – | did not induce PMN migration | no chemotaxis was observed | failed to induce in vivo angiogenesis
